Data taken from paper PMC4783357.

Tested on: T1, His-OsWOX3A (Oryza sativa), ORF:198cabac
T1 sequence: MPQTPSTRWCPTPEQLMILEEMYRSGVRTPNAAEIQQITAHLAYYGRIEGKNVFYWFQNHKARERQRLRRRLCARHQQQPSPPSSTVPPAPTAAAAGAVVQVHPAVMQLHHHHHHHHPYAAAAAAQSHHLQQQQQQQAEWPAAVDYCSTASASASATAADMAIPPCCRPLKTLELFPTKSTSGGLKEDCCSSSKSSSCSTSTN
Experiment: EMSA
Conditions: 10 mM Tris pH 7.5, 50 mM KCl, 1 mM DTT (from 10x buffer) plus about 50 mM KCl, 5 mM MgCl2, 10 mM EDTA, 2.5% glycerol, 0.05% NP-40, 50 ng/ul poly(dG-dC); room …

Sequence: TACAAAACTCACTACTAGTAATTAAGTGTTGAGGGTTCGAGAACAAATTAATTAATCGCCAAATAATGCATCACAAACATCATCAACCTAGTTATCGGTT (double strand) [KAO-W1]
- binding: binds
